This passage reports stoichiometry N results from paper PMC3920835.

For the test, the target named is Methylibium petroleiphilum PM1 dioxygenase (Mpe_A2762) (Methylibium petroleiphilum PM1) (UniProt A2SJH7). The test is described as follows: SEC-MALS. On the technique in general: SEC sorts molecules by how far they enter the pores of the column.

A word on the stoichiometry N: it is a count of units in the complex or per binding partner. “Methylibium petroleiphilum PM1 dioxygenase (Mpe_A2762) (from UniProt A2SJH7 1-253) (enzyme)” displayed a stoichiometry N of 2.
